The values that follow come from the supplement of paper PMC10598134.

± gives the standard deviation.

This series can be described thus: collision cross section of modified peptide (TIMS, N2, iRT-aligned); higher = larger / more extended gas-phase ion. Summed up: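 Collision cross section values rest on the Mason-Schamp equation applied to calibrated, run-aligned mobility data from synthetic peptides. Mobility (1/K0) was calibrated with three reference ions and aligned per run to the median iRT peptide deviation, and 1–3 technical replicates of the most abundant feature per charge state were averaged. Data came from a timsTOF Pro/HT in dda-PASEF mode (nitrogen, ~2.4 mbar) after a 120-min nanoflow C18 gradient at 60 °C.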

The mark [1] stands for this setting: charge state: 2, modification: hydroxyisobutyryl.
Setting [2] is: charge state: 3, modification: Methyl (K).
[3] abbreviates: charge state: 2, modification: Hydroxyproline.
Where [4] appears, read: charge state: 2, modification: Glutarylation.
The mark [5] stands for this setting: charge state: 3, modification: Glutarylation.
[6] abbreviates: charge state: 2, modification: GlyGly (K).
The mark [7] stands for this setting: charge state: 3, modification: GlyGly (K).
Setting [8] is: charge state: 2, modification: Methyl (K).
The mark [9] stands for this setting: charge state: 3, modification: Nitro (Y).
The mark [10] stands for this setting: charge state: 2, modification: Phospho (Y).
[11] abbreviates: charge state: 2, modification: Succinyl.
Setting [12] is: charge state: 3, modification: Succinyl.
The mark [13] stands for this setting: charge state: 2, modification: Biotin.
Where [14] appears, read: charge state: 3, modification: hydroxyisobutyryl.
[15] abbreviates: charge state: 2, modification: Butyryl.
Setting [16] is: charge state: 3, modification: Biotin.
Where [17] appears, read: charge state: 2, modification: Citrullination (R).
Setting [18] is: charge state: 2, modification: Trimethyl (K).
Setting [19] is: charge state: 3, modification: Trimethyl (K).
[20] abbreviates: charge state: 3, modification: Butyryl.
Setting [21] is: charge state: 2, modification: Methyl (R).
Setting [22] is: charge state: 2, modification: Malonyl.
The mark [23] stands for this setting: charge state: 3, modification: HexNAc (ST).
Where [24] appears, read: charge state: 3, modification: Methyl (R).

Under setting [1], “KFGVLSDNFK [_K(hydroxyisobutyryl)FGVLSDNFK_]” registered a collision cross section of 378.39 ± 0.91 Å².
Consider “PANEKATDDYHYEK [_PANEK(Methyl (K))ATDDYHYEK_]”, for which the collision cross section under setting [2] is listed as 492.44 ± 0.72 Å².
Under setting [3], “GEPGLPGHPGK [_GEPGLP(Hydroxyproline)GHPGK_]” registered a collision cross section of 337.36 ± 0.3 Å².
On to “DSSPTTNSKLSALQR [_DSSPTTNSK(Gluratylation)LSALQR_]”, for which the collision cross section was found to be 431.44 ± 1.5 Å² under setting [4] and 500.2 ± 1 Å² under setting [5].
On to IQTKAGEATVK [_IQTK(GlyGly (K))AGEATVK_], for which the collision cross section worked out at 373.63 ± 0.56 Å² under setting [6] and 455.83 Å² under setting [7].
As to “ATVASSTQKFQDLGVK [_ATVASSTQK(Gluratylation)FQDLGVK_]”, the collision cross section came to 449.16 ± 1.1 Å² under setting [4] and 497.84 ± 1.7 Å² under setting [5].
With “DESFLGKLGGTLAR [_DESFLGK(Methyl (K))LGGTLAR_]”, the collision cross section is, setting by setting: under setting [8], 408.12 ± 0.81 Å²; under setting [2], 471.83 ± 2.8 Å².
As to LYAVHQEGNK [_LY(Nitro (Y))AVHQEGNK_], the collision cross section runs as follows: (charge state: 2, modification: Nitro (Y)) 359.52 ± 0.17 Å²; under setting [9], 458.4 ± 0.23 Å².
Under setting [10], FEGAIYR [_FEGAIY(Phospho (Y))R_] gave a collision cross section of 333.04 ± 0.65 Å².
On to “DTGEKLTVAENEAETK [_DTGEK(Dimethyl (K))LTVAENEAETK_]”, for which the collision cross section is, setting by setting: (charge state: 2, modification: Dimethyl (K)) 442.93 ± 0.72 Å²; (charge state: 3, modification: Dimethyl (K)) 481.58 ± 2.1 Å².
Turning to INNFSADIKDSK [_INNFSADIK(Succinyl)DSK_], the collision cross section under setting [11] worked out at 402.07 ± 0.25 Å² and the collision cross section under setting [12] is recorded as 465.51 Å².
TPNLYIYSKK [_TPNLYIYSK(Biotin)K_] showed a collision cross section under setting [13] of 409.6 Å².
“DYSAPVNFISAGLKK [_DYSAPVNFISAGLK(Gluratylation)K_]” came in with a collision cross section under setting [4] of 441.44 ± 0.95 Å² and a collision cross section under setting [5] of 535.69 ± 1.8 Å².
On to PATSYVR [_PATSY(Phospho (Y))VR_], for which, under setting [10], the collision cross section is 328.8 ± 0.068 Å².
Under setting [1], “SKLLFSNTAAQK [_SK(hydroxyisobutyryl)LLFSNTAAQK_]” returned a collision cross section of 404.35 ± 0.3 Å².
“IHVQSSSDSSDEPAEKR [_IHVQSSSDSSDEPAEK(hydroxyisobutyryl)R_]” yielded a collision cross section under setting [1] of 455.71 ± 0.4 Å² and a collision cross section under setting [14] of 514.66 ± 3.7 Å².
Under setting [3], PGPRGQR [_P(Hydroxyproline)GPRGQR_] returned a collision cross section of 294.67 Å².
Substance “PGGEGPQCEKTTDVK [_PGGEGPQCEK(Butyryl)TTDVK_]” returned a collision cross section under setting [15] of 421.37 ± 0.77 Å².
Consider “GFALVGVGSEASSKK [_GFALVGVGSEASSK(Biotin)K_]”, for which the collision cross section by setting is: under setting [13], 423.88 ± 1.4 Å²; under setting [16], 494.71 ± 0.97 Å².
“GSYLGGYSAGRGIYSR [_GSYLGGYSAGR(Citrullination (R))GIYSR_]”: the collision cross section reads like this: under setting [17], 429.9 ± 0.2 Å²; (charge state: 3, modification: Citrullination (R)) 475.97 ± 0.76 Å².
Turning to “GGPGSTLSFVGKR [_GGPGSTLSFVGK(Methyl (K))R_]”, the collision cross section under setting [8] came out at 391.3 ± 0.92 Å² and the collision cross section under setting [2] worked out at 452.34 ± 5 Å².
On to “DTPTSAGPNSFNKGK [_DTPTSAGPNSFNK(Trimethyl (K))GK_]”, for which the collision cross section is 411.65 ± 1.2 Å² under setting [18] and 457.6 ± 1.8 Å² under setting [19].
Take “DYSSGFGGKYGVQADR [_DYSSGFGGK(Acetyl (K))YGVQADR_]”: the collision cross section (charge state: 2, modification: Acetyl (K)) is reported as 430.77 ± 2.2 Å².
“SLGEPAAGEGSAKR [_SLGEPAAGEGSAK(Butyryl)R_]”: the collision cross section is, setting by setting: under setting [15], 388.15 ± 2 Å²; under setting [20], 487.74 ± 4.3 Å².
As to ANAIGRGAK [_ANAIGR(Methyl (R))GAK_], the collision cross section under setting [21] was determined as 322.43 ± 1.8 Å².
On to “GETASKLQSEISR [_GETASK(Trimethyl (K))LQSEISR_]”, for which, under setting [19], the collision cross section turned out to be 463.43 ± 1.5 Å².
As to “VNIGQGSHPQKVK [_VNIGQGSHPQK(hydroxyisobutyryl)VK_]”, the collision cross section runs as follows: under setting [1], 435.4 ± 0.33 Å²; under setting [14], 488.96 ± 2.8 Å².
Regarding “IVFSGNLFQHQEDSKK [_IVFSGNLFQHQEDSK(GlyGly (K))K_]”, the collision cross section is, setting by setting: under setting [6], 491.77 Å²; under setting [7], 544.77 ± 1.6 Å².
“SLGEPAAGEGSAKR [_SLGEPAAGEGSAK(Malonyl)R_]” came in with a collision cross section under setting [22] of 366.04 ± 1.1 Å².
For the substance “IVSGKDYNVTANSK [_IVSGK(Trimethyl (K))DYNVTANSK_]”, the collision cross section under setting [18] worked out at 419.62 ± 1.6 Å² and the collision cross section under setting [19] was found to be 475.29 ± 2.4 Å².
On to VGEFSGANKEK [_VGEFSGANK(GlyGly (K))EK_], for which the collision cross section turned out to be 372.84 ± 0.89 Å² under setting [6] and 452.89 ± 1.5 Å² under setting [7].
In turn, “IGSLDNITHVPGGGNK [_IGS(HexNAc (ST))LDNITHVPGGGNK_]” registered a collision cross section under setting [23] of 493.45 ± 0.96 Å².
As for AGRGFSLEELR [_AGR(Methyl (R))GFSLEELR_], the collision cross section under setting [21] is 379.24 Å² and the collision cross section under setting [24] is reported as 460.11 ± 2.4 Å².
As to VFSIISSEKELK [_VFSIISSEK(Butyryl)ELK_], the collision cross section under setting [15] was found to be 413.27 ± 0.78 Å².
Substance “IISSIEQKEENK [_IISSIEQK(Gluratylation)EENK_]” gave a collision cross section under setting [4] of 411.03 ± 0.6 Å² and a collision cross section under setting [5] of 467.18 ± 1.7 Å².
Turning to LLEQKTQESQK [_LLEQK(Malonyl)TQESQK_], the collision cross section under setting [22] turned out to be 397.91 ± 0.65 Å².
Under setting [10], “LGGDLGTYVINK [_LGGDLGTY(Phospho (Y))VINK_]” returned a collision cross section of 375.25 ± 0.063 Å².
In the case of TPNLYIYSKK [_TPNLYIYSK(Methyl (K))K_], the collision cross section reads like this: under setting [8], 377.12 ± 0.28 Å²; under setting [2], 428.93 ± 5.2 Å².
The substance “FGSRGGPGGGFR [_FGSR(Methyl (R))GGPGGGFR_]” registered a collision cross section under setting [24] of 435.83 ± 3.2 Å².
“LGSPSGKTGTCR [_LGSPSGK(hydroxyisobutyryl)TGTCR_]” showed a collision cross section under setting [1] of 375.43 Å².
On to “GRGAAAAGGPQR [_GR(Citrullination (R))GAAAAGGPQR_]”, for which the collision cross section under setting [17] was found to be 334.88 ± 0.28 Å².
In turn, “PSVSTKLISK [_PSVSTK(hydroxyisobutyryl)LISK_]” returned a collision cross section under setting [1] of 359.8 ± 1.9 Å².
“SSGPGGQNVNKVNSK [_SSGPGGQNVNK(Formyl)VNSK_]” yielded a collision cross section (charge state: 2, modification: Formyl) of 398.34 ± 0.83 Å² and a collision cross section (charge state: 3, modification: Formyl) of 435.41 ± 4.1 Å².
As to “GTISAPGKVVTAAAQAK [_GTISAPGK(Gluratylation)VVTAAAQAK_]”, the collision cross section is, setting by setting: under setting [4], 445.81 ± 0.95 Å²; under setting [5], 526.52 ± 1.1 Å².
Under setting [22], LEQVEKELLR [_LEQVEK(Malonyl)ELLR_] returned a collision cross section of 382.93 ± 0.62 Å².
“VDIDVPDVNIEGPDAKLK [_VDIDVPDVNIEGPDAK(Crotonyl)LK_]” registered a collision cross section (charge state: 2, modification: Crotonyl) of 487.32 Å².
Turning to VETTVTSLKTK [_VETTVTSLK(Biotin)TK_], the collision cross section under setting [13] came to 412.03 ± 1.9 Å².
“IQTKAGEATVK [_IQTK(Trimethyl (K))AGEATVK_]” returned a collision cross section under setting [18] of 376.56 ± 1.1 Å² and a collision cross section under setting [19] of 436.23 Å².
Under setting [9], “DDIIENAPTTHTEEYSGEEK [_DDIIENAPTTHTEEY(Nitro (Y))SGEEK_]” had a collision cross section of 553.72 ± 2.2 Å².
Turning to “HLRGHGPQPPLR [_HLR(Methyl (R))GHGPQPPLR_]”, the collision cross section under setting [24] amounted to 492.6 ± 2.1 Å².
For the setting “charge state: 2, modification: Propionyl”, ISALQGKLSK [_ISALQGK(Propionyl)LSK_] displayed a collision cross section of 357.21 ± 0.33 Å².
“TGGTQTDLFTCGKCK [_TGGTQTDLFTCGK(Malonyl)CK_]” gave a collision cross section under setting [22] of 436.14 ± 0.67 Å².
The substance “VFIGNLNTLVVKK [_VFIGNLNTLVVK(Trimethyl (K))K_]” displayed a collision cross section under setting [18] of 435.19 ± 1 Å² and a collision cross section under setting [19] of 485.88 ± 1.8 Å².
In the case of “QQETAAAETETR [_QQETAAAETET(HexNAc (ST))R_]”, the collision cross section is, setting by setting: (charge state: 2, modification: HexNAc (ST)) 397.03 ± 0.67 Å²; under setting [23], 483.44 ± 0.18 Å².
LGNDFHTNKR [_LGNDFHTNK(Butyryl)R_]: the collision cross section by setting is: under setting [15], 377.65 ± 0.22 Å²; under setting [20], 446.3 ± 2.8 Å².
Regarding YRGDYDR [_YR(Citrullination (R))GDYDR_], the collision cross section under setting [17] is 333.6 ± 1.8 Å².
As for “DYSAPVNFISAGLKK [_DYSAPVNFISAGLK(Biotin)K_]”, the collision cross section reads like this: under setting [13], 458.59 ± 0.47 Å²; under setting [16], 548.62 Å².
In the case of “DYSSGFGGKYGVQADR [_DYSSGFGGK(Methyl (K))YGVQADR_]”, the collision cross section runs as follows: under setting [8], 432 Å²; under setting [2], 489.11 ± 2.4 Å².
For the substance “GEVGAGAGPGAQAGPSAKR [_GEVGAGAGPGAQAGPSAK(Succinyl)R_]”, the collision cross section is, setting by setting: under setting [11], 417.99 ± 0.36 Å²; under setting [12], 474.67 ± 1.5 Å².
